Laboratory results from patent US20240180982A1 (published 2024).

T1: Recombinant Human CD46 Protein (His Tag) (Sino biological, 12239-H08H) (human, UniProt P15529 35-328)
T1 chain: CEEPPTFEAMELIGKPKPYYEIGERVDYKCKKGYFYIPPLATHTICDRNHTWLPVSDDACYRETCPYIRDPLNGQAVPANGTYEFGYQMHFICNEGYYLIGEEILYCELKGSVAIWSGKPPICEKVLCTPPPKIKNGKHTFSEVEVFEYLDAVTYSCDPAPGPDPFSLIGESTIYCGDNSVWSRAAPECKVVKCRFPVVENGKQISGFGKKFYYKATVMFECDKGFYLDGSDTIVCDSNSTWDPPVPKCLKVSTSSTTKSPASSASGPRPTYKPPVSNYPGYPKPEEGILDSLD

T2: Recombinant Human Desmoglein-2 Fc Chimera Protein (R&D Systems, 947-DM-100) (human, UniProt Q14126 50-609)
T2 chain: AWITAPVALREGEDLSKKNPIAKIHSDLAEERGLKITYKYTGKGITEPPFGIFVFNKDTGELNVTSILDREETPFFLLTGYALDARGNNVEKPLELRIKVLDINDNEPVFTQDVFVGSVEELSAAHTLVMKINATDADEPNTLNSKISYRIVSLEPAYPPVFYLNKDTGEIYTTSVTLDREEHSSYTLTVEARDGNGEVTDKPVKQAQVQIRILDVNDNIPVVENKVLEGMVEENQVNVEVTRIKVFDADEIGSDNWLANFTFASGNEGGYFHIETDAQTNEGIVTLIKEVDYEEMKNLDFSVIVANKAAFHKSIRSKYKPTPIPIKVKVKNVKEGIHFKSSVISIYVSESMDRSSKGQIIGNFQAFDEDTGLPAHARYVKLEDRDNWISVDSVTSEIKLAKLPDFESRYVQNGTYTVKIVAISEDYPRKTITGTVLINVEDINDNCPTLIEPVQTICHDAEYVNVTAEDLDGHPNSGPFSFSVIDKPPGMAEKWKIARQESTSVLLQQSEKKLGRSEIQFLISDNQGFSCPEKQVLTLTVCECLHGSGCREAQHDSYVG

B1: HAdV-B3k (other)
chain: TFDSSNSIALKNNTLWTGPKPEANCIIEYGKQNPDSKLTLILVKNGGIVNGYVTLMGASDYVNTLFKNKNVSINVELYFDATGHILPDSSSLKTDLELKYKQTADFSARGFMPSTTAYPFVLPNAGTHNENYIFGQCYYKASDGALFPLEVTVMLNKRLPDSRTSYVMTFLWSLNAGLAPETTQATLITSPFTFSYIREDD

How the values were obtained:
[1] = biological target: Recombinant Human CXADR Fc Chimera Protein (CAR; R&D Systems, 3336-CX-050) (human) (UniProt P78310); test: SPR (BIAcore 3000), receptor amine coupled to CM5 chip, knob as analyte
[2] = biological target: Recombinant Human Desmoglein-2 Fc Chimera Protein (R&D Systems, 947-DM-100) (human) (UniProt Q14126); test: SPR
[3] = biological target: CAR on CHO-CAR cells (human) (UniProt P78310)
[4] = biological target: Recombinant Human CD46 Protein (His Tag) (Sino biological, 12239-H08H) (human) (UniProt P15529); test: SPR (BIAcore 3000), receptor amine coupled to CM5 chip, knob as analyte, equilibrium fit
[5] = biological target: Recombinant Human Desmoglein-2 Fc Chimera Protein (R&D Systems, 947-DM-100) (human) (UniProt Q14126); test: as above
[6] = biological target: T1, Recombinant Human CD46 Protein (His …); test: SPR
[7] = biological target: T2, Recombinant Human Desmoglein-2 Fc …; test: SPR

Recombinant Human CXADR Fc Chimera Protein (CAR; R&D Systems, 3336-CX-050) (human), sequence (P78310 20-237, change not shown): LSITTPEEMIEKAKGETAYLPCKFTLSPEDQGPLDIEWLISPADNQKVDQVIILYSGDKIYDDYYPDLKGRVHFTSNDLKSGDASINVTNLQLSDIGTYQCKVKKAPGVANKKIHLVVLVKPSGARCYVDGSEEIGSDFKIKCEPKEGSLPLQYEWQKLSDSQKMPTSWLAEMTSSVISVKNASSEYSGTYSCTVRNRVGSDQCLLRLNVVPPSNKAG
CAR on CHO-CAR cells (human), sequence (P78310 20-365): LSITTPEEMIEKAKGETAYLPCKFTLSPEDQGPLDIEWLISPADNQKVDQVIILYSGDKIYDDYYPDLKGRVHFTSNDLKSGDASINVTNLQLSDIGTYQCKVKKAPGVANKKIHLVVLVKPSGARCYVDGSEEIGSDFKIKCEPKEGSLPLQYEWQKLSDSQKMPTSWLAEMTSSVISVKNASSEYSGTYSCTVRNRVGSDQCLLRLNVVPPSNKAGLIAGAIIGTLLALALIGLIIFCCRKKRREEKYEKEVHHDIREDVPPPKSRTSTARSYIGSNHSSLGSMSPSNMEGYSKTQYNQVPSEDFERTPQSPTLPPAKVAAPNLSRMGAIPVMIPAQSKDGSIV

Molecule | Kd [1] [µM] | Kd [2] [µM] | fold lower affinity than HAdV-C5 (by IC50 values) [3] [fold] | Kd [4] [µM] | Kd [5] [µM] | Kd [6] [µM] | Kd [7] [µM]
Recombinant HAdV-C5 fiber knob protein (from UniProt P11818 387-581) | 0.00076 | 125 | – | – | – | – | –
Recombinant HAdV-D10 fiber knob protein | 0.44 | – | 16.5 | 20 | 125 | – | –
B1 | – | – | – | – | – | 0.16 | 66.9
